From the supplement of paper PMC12042874
± gives the uncertainty stated by the source.

Experiment: amyloid nucleation score (Sup35N fusion, yeast selection) (log enrichment); library NNK1; higher = more nucleation; inactive = no reads after selection
How it was run: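 On medium lacking adenine and uracil, psi-negative yeast expressing peptides of 20 random codons fused to Sup35N were grown 7 days at 30°C after a 24-hour induction with 100 μM copper sulfate. Illumina sequencing of input and output plasmid inserts gave the reads, and sequences under 100 input reads were excluded. The nucleation score is the DiMSum log enrichment of output over input reads, centred on the mode score of non-aggregating sequences.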
VSGESDSYRVGFSEACLRKL showed an amyloid nucleation score of -0.849 ± 0.65. In the case of VSGFGSTYLLCVN, the amyloid nucleation score is reported as 0.589 ± 1.2. In the case of VSIRFSCRRIYNFLVEFPLG, the amyloid nucleation score is reported as -0.102 ± 0.19. Work on VSKDSSIQRGSRQFCYLAYS yielded an amyloid nucleation score of 1.08 ± 0.61. For VSMATAVF, the amyloid nucleation score was 1.22 ± 0.64. Work on VSNVRNSCLHLSARLYSTDL yielded an amyloid nucleation score of -0.702 ± 0.91. Work on VSPSIRMGNQGSSFSVLNAL yielded an amyloid nucleation score of 0.149 ± 0.55. In the case of VSQHSERQGAVCNRCFIVWR, the amyloid nucleation score is reported as 6.101 ± 0.057. VSSGRRIGCVSPGSGEAREW showed an amyloid nucleation score of 0.376 ± 0.61. In the case of VSTCTL, the amyloid nucleation score is reported as “inactive”. VSYKCSVRFLCIGRLRGVLF showed an amyloid nucleation score of -0.197 ± 0.28. Work on VSYYITCRGKVETIALADRM yielded an amyloid nucleation score of 0.088 ± 0.93. In the case of VTACGYRMRRCRCFCECNGT, the amyloid nucleation score is reported as 0.72 ± 0.57. With VTCRCYSFSLMAGAMTRRSG the amyloid nucleation score was 0.188 ± 0.75. VTDCKLMCTVRPVSGSKTPV gave an amyloid nucleation score of 0.139 ± 0.34. For VTFLFNFWHVFC, the amyloid nucleation score was 6.95 ± 0.074. In the case of VTFVIYNRDNSAEYGVVFC, the amyloid nucleation score is reported as -0.46 ± 0.71. In the case of VTILWTKSYMESDISFYIMW, the amyloid nucleation score is reported as -1.03 ± 0.44. With VTIYFILRNGGRVSESLNPW the amyloid nucleation score was 7.19 ± 0.084. For VTRVLLVKWPYNTVETCGGA, the amyloid nucleation score was -0.317 ± 0.33. VTRVRFGSVWGSQVHRNFVM gave an amyloid nucleation score of 0.212 ± 0.4. VTYNGYVG showed an amyloid nucleation score of -0.205 ± 0.58. Work on VTYTISRELSFCPPITFGTL yielded an amyloid nucleation score of 0.777 ± 0.73. With VVASAFSSL the amyloid nucleation score was 0.388 ± 0.93. In the case of VVCGIPVFNLRYL, the amyloid nucleation score is reported as -0.495 ± 0.42. With VVCQSDILDLSMWTMMGVSM the amyloid nucleation score was -0.823 ± 0.66. Substance VVCRCTYFRLITGDSSL has an amyloid nucleation score of -0.136 ± 0.8. Substance VVCRVNTSVMGFKSNCRLGV has an amyloid nucleation score of 0.624 ± 0.6. In the case of VVDVSYRNLRRCM, the amyloid nucleation score is reported as 0.8 ± 0.36. In the case of VVELASLEGGHELTNWVNLV, the amyloid nucleation score is reported as 0.231 ± 0.59. Work on VVGYRRTMGLVEFSLASVSN yielded an amyloid nucleation score of -0.806 ± 0.76. Work on VVKSEVNTVA yielded an amyloid nucleation score of 1.27 ± 0.62. VVLAMTVRLWC gave an amyloid nucleation score of -0.667 ± 1.3. With VVLCSVLTFDPSAEHLCTLV the amyloid nucleation score was 6.44 ± 0.066. VVLMLRDVEEFRQ showed an amyloid nucleation score of -0.38 ± 0.21. With VVLNCYIYVIPA the amyloid nucleation score was 3.39 ± 0.13. In the case of VVMLNFYCIRNRRVWIVNIC, the amyloid nucleation score is reported as 3.76 ± 0.058. VVNGTMFINPCYVQGRCKEM showed an amyloid nucleation score of 4.63 ± 0.067. VVSFLLHPCDFRSWFCGCIW gave an amyloid nucleation score of -0.226 ± 0.93. VVSNTGSFSPVRMR showed an amyloid nucleation score of -0.117 ± 0.42. In the case of VVSWDS, the amyloid nucleation score is reported as -0.015 ± 0.41. For VVTQCLLAAAVHLYCNCHHM, the amyloid nucleation score was 6.972 ± 0.045. VVTSLIL showed an amyloid nucleation score of -0.999 ± 1.2. In the case of VVTWVYASSVVLSSLPREGA, the amyloid nucleation score is reported as -0.115 ± 0.26. In the case of VVWILMSAQNRMAPRFDVLT, the amyloid nucleation score is reported as 1.06 ± 0.51. In the case of VVYDGIMSWIYYCRFVVDAV, the amyloid nucleation score is reported as “inactive”. VWDSFSHVLVRLGIYLFFYV gave an amyloid nucleation score of 0.763 ± 0.42. With VWFCLCLYM the amyloid nucleation score was 1.95 ± 0.091. For VWLRIM, the amyloid nucleation score was -0.957 ± 2.4. In the case of VWMVMSYPDHTLVLLLTG, the amyloid nucleation score is reported as -1.33 ± 0.57. Work on VWRSFKSMHSHRSNSNALWL yielded an amyloid nucleation score of 1.96 ± 0.6. Work on VWRTEQ yielded an amyloid nucleation score of -0.533 ± 0.66. Work on VWRTYVGPVCSMLAG yielded an amyloid nucleation score of 0.641 ± 0.32. VYASSCMLGTWLSDSTSGCS gave an amyloid nucleation score of 0.371 ± 0.69. With VYATSSIKIAVPVLHQAVLP the amyloid nucleation score was 3.14 ± 0.096. With VYESGRCNLACRMFARDGCS the amyloid nucleation score was -1.38 ± 2.4. With VYGFDRFKVRRMGESLWWS the amyloid nucleation score was “inactive”. With VYIHTWIRVKIWSSS the amyloid nucleation score was 1.96 ± 0.65. VYIYRSVPNTAPAPMIEKKD gave an amyloid nucleation score of -0.048 ± 1.2. For VYKFIFAYYYSEDVPFNRPL, the amyloid nucleation score was “inactive”. With VYLYMPPIDLL the amyloid nucleation score was -0.021 ± 0.46. For VYMMGGTLLRPYAILSYLDP, the amyloid nucleation score was 0.465 ± 0.3. VYNAPGCVNRSDLVV gave an amyloid nucleation score of -0.745 ± 2.4. Substance VYPWPVERSNFPTSALSYTK has an amyloid nucleation score of -0.843 ± 0.6.
